{
  "source": "patent US5786168",
  "key": {"[1]": {"molecular_target": "human antigen non-specific glycosylation inhibiting factor (GIF), hybridoma-derived (human)", "assay": "ELISA, culture supernatant on wells coated with affinity-purified GIF from CL3"}, "[2]": {"molecular_target": "PLA2-binding GIF from anti-CD3-treated AC5 cells (human)", "assay": "ELISA of the acid eluate fraction from 110BH3-Sepharose"}, "[3]": {"molecular_target": "human antigen non-specific glycosylation inhibiting factor (GIF), hybridoma-derived (human)", "assay": "ELISA of the flow-through fraction from 110BH3-Sepharose"}, "[4]": {"molecular_target": "bovine serum albumin (BSA) (bovine) (UniProt P02769)", "assay": "ELISA, nonspecific binding of Ig in the same supernatant to BSA-coated wells"}, "[5]": {"molecular_target": "recombinant human GIF secreted by COS-1 cells co-transfected with SRα-hcGIF and SRα-hfurin (human)", "assay": "fractionation of concentrated COS-1 supernatant on 388F1-Sepharose; GIF bioassay"}},
  "data": [
    {"substance": "monoclonal anti-human GIF antibody 388F1 (ATCC HB 10472)", "values": [
      {"measurement": "ELISA signal (optical density at 410 mµ)", "setting": "[1]", "value": 0.892, "unit": "OD"},
      {"measurement": "ELISA signal (absorption at 490 nm)", "setting": "[2]", "value": 0.86, "unit": "absorbance"},
      {"measurement": "ELISA signal (absorption at 490 nm)", "setting": "[3]", "value": 0.36, "unit": "absorbance"},
      {"measurement": "ELISA control (optical density at 410 mµ)", "setting": "[4]", "value": 0.1, "unit": "OD"},
      {"measurement": "GIF activity recovered in the acid eluate fraction", "setting": "[5]", "value": "> 75", "unit": "%"}
    ]}
  ]
}
